According to doi:10.1101/2024.03.20.585881 (bioRxiv, 2024):

B1: β-catenin (natural protein, human (endogenous in HEK293 and HeLa), UniProt P35222 1-781, looked up)
chain: MATQADLMELDMAMEPDRKAAVSHWQQQSYLDSGIHSGATTTAPSLSGKGNPEEEDVDTSQVLYEWEQGFSQSFTQEQVADIDGQYAMTRAQRVRAAMFPETLDEGMQIPSTQFDAAHPTNVQRLAEPSQMLKHAVVNLINYQDDAELATRAIPELTKLLNDEDQVVVNKAAVMVHQLSKKEASRHAIMRSPQMVSAIVRTMQNTNDVETARCTAGTLHNLSHHREGLLAIFKSGGIPALVKMLGSPVDSVLFYAITTLHNLLLHQEGAKMAVRLAGGLQKMVALLNKTNVKFLAITTDCLQILAYGNQESKLIILASGGPQALVNIMRTYTYEKLLWTTSRVLKVLSVCSSNKPAIVEAGGMQALGLHLTDPSQRLVQNCLWTLRNLSDAATKQEGMEGLLGTLVQLLGSDDINVVTCAAGILSNLTCNNYKNKMMVCQVGGIEALVRTVLRAGDREDITEPAICALRHLTSRHQEAEMAQNAVRLHYGLPVVVKLLHPPSHWPLIKATVGLIRNLALCPANHAPLREQGAIPRLVQLLVRAHQDTQRRTSMGGTQQQFVEGVRMEEIVEGCTGALHILARDVHNRIVIRGLNTIPLFVQLLYSPIENIQRVAAGVLCELAQDKEAAEAIEAEGATAPLTELLHSRNEGVATYAAAVLFRMSEDKPQDYKKRLSVELTSSLFRTEPMAWNETADLGLDIGAQGEPLGYRQDDPSYRSFHSGGYGQDALGMDPMMEHEMGGHHPGADYPVDGLPDLGHAQDLMDGLPPGDSNQLAWFDTDL
B2: α-catenin (natural protein, human (endogenous in HEK293 and HeLa), UniProt P35221 1-906, looked up)
chain: MTAVHAGNINFKWDPKSLEIRTLAVERLLEPLVTQVTTLVNTNSKGPSNKKRGRSKKAHVLAASVEQATENFLEKGDKIAKESQFLKEELVAAVEDVRKQGDLMKAAAGEFADDPCSSVKRGNMVRAARALLSAVTRLLILADMADVYKLLVQLKVVEDGILKLRNAGNEQDLGIQYKALKPEVDKLNIMAAKRQQELKDVGHRDQMAAARGILQKNVPILYTASQACLQHPDVAAYKANRDLIYKQLQQAVTGISNAAQATASDDASQHQGGGGGELAYALNNFDKQIIVDPLSFSEERFRPSLEERLESIISGAALMADSSCTRDDRRERIVAECNAVRQALQDLLSEYMGNAGRKERSDALNSAIDKMTKKTRDLRRQLRKAVMDHVSDSFLETNVPLLVLIEAAKNGNEKEVKEYAQVFREHANKLIEVANLACSISNNEEGVKLVRMSASQLEALCPQVINAALALAAKPQSKLAQENMDLFKEQWEKQVRVLTDAVDDITSIDDFLAVSENHILEDVNKCVIALQEKDVDGLDRTAGAIRGRAARVIHVVTSEMDNYEPGVYTEKVLEATKLLSNTVMPRFTEQVEAAVEALSSDPAQPMDENEFIDASRLVYDGIRDIRKAVLMIRTPEELDDSDFETEDFDVRSRTSVQTEDDQLIAGQSARAIMAQLPQEQKAKIAEQVASFQEEKSKLDAEVSKWDDSGNDIIVLAKQMCMIMMEMTDFTRGKGPLKNTSDVISAAKKIAEAGSRMDKLGRTIADHCPDSACKQDLLAYLQRIALYCHQLNICSKVKAEVQNLGGELVVSGVDSAMSLIQAAKNLMNAVVQTVKASYVASTKYQKSQGMASLNLPAVSWKMKAPEKKPLVKREKQDETQTKIKRASQKKHVNPVQALSEFKAMDSI

Columns and labels:
3xFLAG-mScarlet-APC = 3xFLAG-mScarlet-APC (human (endogenous in HEK293), UniProt P25054 1-2843); assay: affinity purification with mass spectrometry
Sequence of 3xFLAG-mScarlet-APC (P25054 whole entry): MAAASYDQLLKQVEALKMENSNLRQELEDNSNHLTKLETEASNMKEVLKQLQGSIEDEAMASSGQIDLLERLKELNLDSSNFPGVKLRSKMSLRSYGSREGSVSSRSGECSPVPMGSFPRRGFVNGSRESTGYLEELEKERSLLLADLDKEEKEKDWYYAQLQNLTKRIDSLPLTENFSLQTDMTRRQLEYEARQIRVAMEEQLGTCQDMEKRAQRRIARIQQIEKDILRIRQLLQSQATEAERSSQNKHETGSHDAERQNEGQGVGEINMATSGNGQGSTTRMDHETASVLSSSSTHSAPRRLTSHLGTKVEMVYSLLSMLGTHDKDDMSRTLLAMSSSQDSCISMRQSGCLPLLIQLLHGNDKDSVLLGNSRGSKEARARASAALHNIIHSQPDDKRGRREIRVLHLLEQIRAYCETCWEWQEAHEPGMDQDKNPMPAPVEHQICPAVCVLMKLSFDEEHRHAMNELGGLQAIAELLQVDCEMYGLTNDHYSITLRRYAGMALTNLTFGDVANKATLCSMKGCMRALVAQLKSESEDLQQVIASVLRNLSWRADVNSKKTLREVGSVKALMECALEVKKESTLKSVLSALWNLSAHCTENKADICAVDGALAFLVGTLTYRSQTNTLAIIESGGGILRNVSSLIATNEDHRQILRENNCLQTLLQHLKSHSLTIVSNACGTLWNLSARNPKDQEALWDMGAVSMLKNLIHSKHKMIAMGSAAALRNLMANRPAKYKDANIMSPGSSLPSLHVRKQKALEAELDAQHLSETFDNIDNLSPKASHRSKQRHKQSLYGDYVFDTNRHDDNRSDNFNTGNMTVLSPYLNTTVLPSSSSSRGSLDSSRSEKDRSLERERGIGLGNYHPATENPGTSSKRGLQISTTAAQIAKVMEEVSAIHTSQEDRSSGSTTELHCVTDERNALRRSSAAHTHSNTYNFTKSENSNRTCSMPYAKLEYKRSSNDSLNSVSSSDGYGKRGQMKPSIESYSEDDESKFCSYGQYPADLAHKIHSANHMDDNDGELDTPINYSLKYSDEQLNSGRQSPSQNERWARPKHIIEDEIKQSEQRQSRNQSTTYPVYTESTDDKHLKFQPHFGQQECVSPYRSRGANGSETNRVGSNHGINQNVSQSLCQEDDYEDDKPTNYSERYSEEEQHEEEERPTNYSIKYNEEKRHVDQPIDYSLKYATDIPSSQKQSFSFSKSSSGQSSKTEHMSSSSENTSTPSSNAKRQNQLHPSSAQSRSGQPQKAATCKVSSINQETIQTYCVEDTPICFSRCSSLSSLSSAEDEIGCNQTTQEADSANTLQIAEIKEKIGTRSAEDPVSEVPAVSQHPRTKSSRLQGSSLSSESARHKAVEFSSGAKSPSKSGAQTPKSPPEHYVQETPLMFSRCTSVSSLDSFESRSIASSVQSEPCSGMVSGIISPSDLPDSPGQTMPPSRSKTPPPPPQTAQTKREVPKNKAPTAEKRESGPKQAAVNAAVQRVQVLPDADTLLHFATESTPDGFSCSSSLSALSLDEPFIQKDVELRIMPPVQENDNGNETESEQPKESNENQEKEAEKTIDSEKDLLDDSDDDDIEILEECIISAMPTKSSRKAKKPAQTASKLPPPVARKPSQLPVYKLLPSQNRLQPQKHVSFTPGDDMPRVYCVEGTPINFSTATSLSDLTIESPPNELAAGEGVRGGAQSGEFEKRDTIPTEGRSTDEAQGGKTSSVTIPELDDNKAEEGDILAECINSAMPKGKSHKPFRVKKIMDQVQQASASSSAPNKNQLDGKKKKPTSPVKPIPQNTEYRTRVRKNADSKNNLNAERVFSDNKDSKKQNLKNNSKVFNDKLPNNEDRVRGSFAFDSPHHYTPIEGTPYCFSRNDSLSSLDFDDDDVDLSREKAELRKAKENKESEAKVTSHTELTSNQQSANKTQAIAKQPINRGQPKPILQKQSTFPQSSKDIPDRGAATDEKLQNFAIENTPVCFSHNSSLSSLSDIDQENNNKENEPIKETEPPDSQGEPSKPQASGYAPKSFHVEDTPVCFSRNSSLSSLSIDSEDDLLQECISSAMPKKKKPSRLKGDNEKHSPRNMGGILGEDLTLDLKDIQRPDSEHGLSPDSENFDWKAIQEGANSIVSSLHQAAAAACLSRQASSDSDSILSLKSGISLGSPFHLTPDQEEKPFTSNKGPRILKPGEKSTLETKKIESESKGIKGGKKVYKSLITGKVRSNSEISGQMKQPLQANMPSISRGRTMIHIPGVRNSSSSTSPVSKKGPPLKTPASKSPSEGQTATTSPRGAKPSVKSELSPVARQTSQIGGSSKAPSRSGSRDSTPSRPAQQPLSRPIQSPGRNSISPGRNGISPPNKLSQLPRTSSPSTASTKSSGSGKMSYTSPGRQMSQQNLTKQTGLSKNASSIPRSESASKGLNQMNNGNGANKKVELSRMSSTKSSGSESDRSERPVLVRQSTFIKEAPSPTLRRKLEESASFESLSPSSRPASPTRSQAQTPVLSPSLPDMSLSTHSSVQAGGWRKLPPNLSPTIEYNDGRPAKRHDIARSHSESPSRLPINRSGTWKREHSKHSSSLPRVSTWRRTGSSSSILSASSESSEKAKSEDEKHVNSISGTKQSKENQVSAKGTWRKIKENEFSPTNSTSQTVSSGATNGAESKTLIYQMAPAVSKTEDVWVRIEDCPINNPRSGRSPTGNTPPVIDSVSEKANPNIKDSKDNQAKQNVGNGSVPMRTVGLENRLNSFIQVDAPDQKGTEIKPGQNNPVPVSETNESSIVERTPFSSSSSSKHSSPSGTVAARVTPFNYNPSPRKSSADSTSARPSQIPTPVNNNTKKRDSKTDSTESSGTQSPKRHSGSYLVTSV

3xFLAG-eGFP-Axin1 = 3xFLAG-eGFP-Axin1 (UniProt O15169 1-862); assay: affinity purification with mass spectrometry
Sequence of 3xFLAG-eGFP-Axin1 (O15169 whole entry): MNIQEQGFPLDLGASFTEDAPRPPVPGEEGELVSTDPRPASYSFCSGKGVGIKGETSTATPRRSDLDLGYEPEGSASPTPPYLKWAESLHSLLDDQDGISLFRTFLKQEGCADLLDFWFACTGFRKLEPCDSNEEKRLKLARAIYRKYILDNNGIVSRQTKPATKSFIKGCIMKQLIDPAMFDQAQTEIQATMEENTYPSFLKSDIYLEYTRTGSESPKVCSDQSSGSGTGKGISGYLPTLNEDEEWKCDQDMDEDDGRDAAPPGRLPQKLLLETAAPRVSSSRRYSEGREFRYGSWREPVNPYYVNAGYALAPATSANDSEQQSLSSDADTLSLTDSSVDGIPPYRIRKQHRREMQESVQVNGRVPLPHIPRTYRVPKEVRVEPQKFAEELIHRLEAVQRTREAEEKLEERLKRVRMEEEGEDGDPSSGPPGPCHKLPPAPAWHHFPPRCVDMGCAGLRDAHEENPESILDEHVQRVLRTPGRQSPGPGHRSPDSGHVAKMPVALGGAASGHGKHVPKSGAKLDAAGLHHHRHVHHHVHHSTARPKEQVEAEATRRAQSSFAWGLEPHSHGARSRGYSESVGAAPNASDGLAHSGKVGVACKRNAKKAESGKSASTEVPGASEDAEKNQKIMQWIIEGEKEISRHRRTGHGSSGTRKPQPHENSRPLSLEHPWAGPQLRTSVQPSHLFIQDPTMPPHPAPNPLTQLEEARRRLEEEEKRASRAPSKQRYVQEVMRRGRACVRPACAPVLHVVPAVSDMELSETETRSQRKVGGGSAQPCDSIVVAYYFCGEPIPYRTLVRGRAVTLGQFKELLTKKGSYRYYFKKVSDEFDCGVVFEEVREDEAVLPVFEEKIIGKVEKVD

Row | Binder | fold reduction of the interaction after puromycin (3xFLAG-mScarlet-APC) [fold] | fold decrease in binding after puromycin (3xFLAG-eGFP-Axin1) [fold]
1 | B1 | ~4 | ~10
2 | B2 |  | ~10
